Test results from publication PMC10450677, “CD44 acts as a coreceptor for cell-specific enhancement of signaling and regulatory T cell induction by TGM1, a parasite TGF-β mimic” (Proceedings of the National Academy of Sciences of the …, 2023).

Key:
[1] = target: T1, TGM1 full-length (D1/2/3/4/5), aa 19-422 (Heligmosomoides polygyrus, UniProt A0A2D1LW19 19-422, 125I (chloramine T) in the cross-linking assays; biotin (EZ-Link Sulfo-NHS-LC-Biotin) in the pull-downs; Alexa Fluor 488 in flow cytometry; no label named for ITC); test: ITC; CD44 in the syringe, TGM1 protein in the cell; 25 mM sodium phosphate, 50 mM NaCl, pH 6.0, 35 °C; 1:1 binding model, global fit of two replicates; settings: both partners purified
T1 construct: TGF-β mimic TGM1, Heligmosomoides polygyrus, GenBank MG099712 (422-aa protein), aa 19-422, omitting the parasite-encoded signal peptide; also called TGM1-FL; FL; source: HEK293 (pSecTag2A), purified (HiTrap nickel chelating, Superdex 75 as needed)
T1 sequence: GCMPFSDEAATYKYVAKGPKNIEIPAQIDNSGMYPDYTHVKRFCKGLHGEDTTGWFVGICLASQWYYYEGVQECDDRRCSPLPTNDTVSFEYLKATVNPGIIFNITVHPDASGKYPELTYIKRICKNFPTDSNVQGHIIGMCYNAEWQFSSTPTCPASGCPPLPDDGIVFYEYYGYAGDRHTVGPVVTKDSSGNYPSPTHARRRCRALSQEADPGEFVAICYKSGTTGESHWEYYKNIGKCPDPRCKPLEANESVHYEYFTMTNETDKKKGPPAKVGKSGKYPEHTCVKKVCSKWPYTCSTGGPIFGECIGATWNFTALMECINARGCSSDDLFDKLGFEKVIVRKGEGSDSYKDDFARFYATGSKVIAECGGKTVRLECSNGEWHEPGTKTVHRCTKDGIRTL

[2] = target: T2, TGM1 D4/5 (domains 4 and 5) (Heligmosomoides polygyrus, UniProt A0A2D1LW19 1-422, 125I (chloramine T) in the cross-linking assays; biotin (EZ-Link Sulfo-NHS-LC-Biotin) in the pull-downs; Alexa Fluor 488 in flow cytometry; no label named for ITC); test: as above; settings: both partners purified
T2 construct: TGM1, Heligmosomoides polygyrus, GenBank MG099712, domains 4 and 5; D1/2/3 ends at aa 262 and the protein at aa 422; also called TGM1-D4/5-biotin; source: recombinant, purified
T2 sequence: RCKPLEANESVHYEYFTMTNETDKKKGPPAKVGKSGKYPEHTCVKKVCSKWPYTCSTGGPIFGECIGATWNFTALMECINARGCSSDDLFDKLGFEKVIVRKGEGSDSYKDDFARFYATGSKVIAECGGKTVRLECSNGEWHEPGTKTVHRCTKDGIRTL

Binder	Kd [1]	dH [1]	stoichiometry N [1]	Kd [2]	dH [2]	stoichiometry N [2]
human CD44 hyaluronan binding domain, aa 21-169 (domain or fragment, UniProt P16070 21-169, looked up, also called hCD44; source: HEK293 (pcDNA3.1+), purified (HiTrap nickel chelating, Superdex 75 as needed)) QIDLNITCRFAGVFHVEKNGRYSISRTEAADLCKAFNSTLPTMAQMEKALSIGFETCRYGFIEGHVVIPRIHPNSICAANNTGVYILTSNTSQYDTYCFNASAPPEEDCTSVTDLPNAFDGPITITIVNRDGTRYVQKGEYRTNPEDIY	92 nM	-10.3 kcal/mol	1.2	140 nM	-9.6 kcal/mol	1.2
mouse CD44 hyaluronan binding domain, aa 23-174 (domain or fragment, UniProt P15379 23-174, looked up, also called mCD44; murine CD44; source: HEK293 (pcDNA3.1+), purified (HiTrap nickel chelating, Superdex 75 as needed)) QIDLNVTCRYAGVFHVEKNGRYSISRTEAADLCQAFNSTLPTMDQMKLALSKGFETCRYGFIEGNVVIPRIHPNAICAANHTGVYILVTSNTSHYDTYCFNASAPPEEDCTSVTDLPNSFDGPVTITIVNRDGTRYSKKGEYRTHQEDIDAS	64 nM	-17.5 kcal/mol	0.8	62 nM	-19.4 kcal/mol	1.4
